Reference: the supplement of paper PMC12764529
± gives the half width of the 95% confidence interval.

How the values were obtained:
[1] = folding stability dG unfold (combined trypsin and chymotrypsin); higher = more stable
Summary of the method: (§1)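 K50 was inferred by Bayesian fitting of sequencing counts obtained after protease digestion of designed mini-proteins. Unfolding free energy was derived by comparison with a sequence-predicted unfolded-state K50 and a shared folded-state K50, for each protease or both combined. The mini-proteins were under 80 residues, had no cysteine, were carried in a PA-tagged cDNA display construct, and were kept only if AlphaFold2 dimer inter-PAE exceeded 15.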

[2] = folding stability dG unfold from trypsin proteolysis; higher = more stable
Summary of the method: as §1

[3] = folding stability dG unfold from chymotrypsin proteolysis; higher = more stable
Summary of the method: as §1

Sequence | folding stability dG unfold [1] | folding stability dG unfold [2] | folding stability dG unfold [3]
SAMVITTSLEEARKRTGLSESASPEEVRAAVEALIAAETAAGVTLLAIELLEVGDTWTLRVEIERAGGVSAG [r14_158_JUSTAS] | 2.07 ± 0.077 kcal/mol | 2.36 ± 0.057 kcal/mol | 1.72 ± 0.068 kcal/mol
SAGGSAGGSAGGMSSTVSLSTSFLPNGEKVVTTTTTFTDSSTTTTTTTTTTVALPPPSVVSAGGSAGGSAGG [r7_495_JUSTAS] | 1.23 ± 0.14 kcal/mol | 1.14 ± 0.075 kcal/mol | 0.984 ± 0.093 kcal/mol
SMKTKTVTLDLSPEDPEAARAAVEAAIAEARAADPDTEVTVTVTISPEHPELLAEIEALAAERGVSLVLGSA [r9_1202_JUSTAS] | 2.81 ± 0.097 kcal/mol | 2.74 ± 0.058 kcal/mol | 2.84 ± 0.06 kcal/mol
SAPEVFRFTIPRYRDDYEFDGDGYPVLKERKPVAPLEVEAVVFEDGTVRVRVGDEVREFPLGVSPEELFSAG [r14_909_TrMRF] | 0.566 ± 0.1 kcal/mol | 0.601 ± 0.22 kcal/mol | 0.355 ± 0.18 kcal/mol
SAGGKSVKVSLPKEALKKAKENEKVVITLPDGTKREAILVRGGDSVPVFVVNPDNPEEAEYVGEATVGSAGG [r13_745_TrMRF] | -0.0228 ± 0.09 kcal/mol | -0.503 ± 0.16 kcal/mol | 0.134 ± 0.042 kcal/mol
SAGGKKPKIEVKIEFDEETGKLRIEIRTEDGKLIAEKEIEIDGVLFKVKVIVKDGKLVIEIEAFPKKSAGGS [r16_631_TrROS_Hall] | 3.65 ± 0.25 kcal/mol | 2.79 ± 0.15 kcal/mol | 3.99 ± 0.12 kcal/mol
SAGGLEELAKEIADDLQKRNPDMNIEVQVEVHEYKIPPGQKMRHPDGEEKEVPPGQKVYMFTIRVTPSAGGS [r16_357_TrROS] | 1.17 ± 0.21 kcal/mol | 0.758 ± 0.11 kcal/mol | 1.26 ± 0.27 kcal/mol
SADIKIDDIETQENPDGYEWYMITINFPDPKKFKEKLKKHGVNPEWDPNDPDQVEIWFPREDIQEILKLSAG [r14_777_TrROS] | 0.665 ± 0.36 kcal/mol | 0.328 ± 0.21 kcal/mol | 0.884 ± 0.28 kcal/mol
SAGGSAGGSAGGNGKKEITIFIKVPPGMPPNEIKDELKDLGLTNIEIERHNNWVMITFRSAGGSAGGSAGGS [r10_868_TrROS] | 1.58 ± 0.12 kcal/mol | 1.15 ± 0.06 kcal/mol | 1.84 ± 0.099 kcal/mol
SAGDGITVNPEKVTLTLDITLPDGTVLRVTVTLTPDGVEVTVEPVPVPPLPGATSPEEAEELLKQALASSAG [r5_272_TrMRF] | 2.34 ± 0.083 kcal/mol | 1.99 ± 0.09 kcal/mol | 2.37 ± 0.086 kcal/mol
SAGGKKTVKIEIVLPKEELEELLKKLLEEAKKKGLKVEVKVELKEVEVEVNGKKKKVLVLKVEIKVEPSAGG [r13_974_TrROS_Hall] | 3.55 ± 0.19 kcal/mol | 3.17 ± 0.12 kcal/mol | 3.76 ± 0.14 kcal/mol
SAGGSAGGSMETVVTVPLPDGRTLTITRYPDGTVTVTYPDGTPVATRPVAPDTSDEAVVAALASAGGSAGGS [r12_990_JUSTAS] | 1.54 ± 0.037 kcal/mol | 0.522 ± 0.016 kcal/mol | 1.83 ± 0.023 kcal/mol
SAGGIRIRDEDGKPRAEYTIYHPDHGMPIEINVYRNKDGNPYIQVEMTGPNGRPKKFTMPADDLNDLSAGGS [r8_24_TrROS] | 0.266 ± 0.082 kcal/mol | -0.862 ± 0.52 kcal/mol | 0.559 ± 0.13 kcal/mol
SAGGSAGGSAGMDIPLTFTAPNADGQPVKVRVEKIIPEKGYLLVRVEYPDDREETFLDPFSAGGSAGGSAGG [r11_742_TrMRF] | -0.0666 ± 0.08 kcal/mol | -0.118 ± 0.14 kcal/mol | -0.167 ± 0.13 kcal/mol
SAGGEIAKRFAKYARDAGYDVRVDVEIIPPDEFPGLKPGKPYVIKVEIEVTPPNGPRRPLGEFTIMINSAGG [r13_874_TrROS] | 2.82 ± 0.08 kcal/mol | 2.13 ± 0.06 kcal/mol | 3.18 ± 0.046 kcal/mol
SAGGSAGGKLKINNEEIGPDKSFPLKKGKEIKVYKDYVKVFVIDPKTNKKKEYTIKLEDLKKLFSAGGSAGG [r6_940_TrMRF] | 1.05 ± 0.18 kcal/mol | 0.437 ± 0.073 kcal/mol | 1.39 ± 0.2 kcal/mol
SAGGSAGGSWKPIPYKIKMTDGDGEKHEFPVQIWVAPEDGWVFIDFPNGHPFWIPANNIKIEPSAGGSAGGS [r12_256_TrROS] | 1.4 ± 0.13 kcal/mol | 0.66 ± 0.062 kcal/mol | 1.88 ± 0.12 kcal/mol
SAGGSAGGSLVLPDDYKVIVREFDLSDVGRAVREVMEEFDVKDALFLAVPLPGKVLLFVVVKESAGGSAGGS [r12_929_TrMRF] | 2.99 ± 0.21 kcal/mol | 2.95 ± 0.098 kcal/mol | 2.9 ± 0.076 kcal/mol
SAGGSMRFKIEDINIGIIPHPPGWLLIPITVKVKFEEPDPDNGEPKTVEHEFPIMIMMPKDDLDDLSAGGSA [r2_184_TrROS] | 2.44 ± 0.14 kcal/mol | 2.01 ± 0.072 kcal/mol | 2.68 ± 0.045 kcal/mol
SAGGSAGGSKSKKYIEIDFSNLTEIKFNPNTNYATAIFKDKGKIYIAKIHFLPNGKAIAEVFDSAGGSAGGS [r12_839_TrMRF] | 2.68 ± 0.077 kcal/mol | 1.67 ± 0.054 kcal/mol | 2.931 ± 0.025 kcal/mol
SAGGKTKVIVVKVKPEMTVEEIAKKLAEELKKKGKKVKVEVKVIEKLPNGELYVKVTVKDGKLTIEPSAGGS [r8_7_TrROS_Hall] | 1.35 ± 0.19 kcal/mol | 1.12 ± 0.085 kcal/mol | 1.42 ± 0.073 kcal/mol
